# Experimental data as given in US12060408B2, “Screening assays, modulators and modulation of activation of Receptor for Advanced Glycation End-products (RAGE)” (Monash University, priority 2017, dated 2024).
# Key:
# Assay type in all cases: cell-based
# RAGE [1] = biological target: T1, RAGE (Homo sapiens, UniProt Q15109); experiment: Ang II-induced pro-inflammatory gene expression in human aortic endothelial cells (HAEC); conditions: HAECs; 1 μM, 30 minutes before Ang II; FIG. 13G
# T1 construct: RAGE-AT1R—CHO cells expressing both full length RAGE and AT1R; expressed in transfected cells
# Description: To confirm the applicability of inhibition strategies to human tissues, additional experiments were undertaken in primary aortic endothelial cells from humans (Lonza). HAECs were grown in EGM-2 media. […]
# RAGE [2] = biological target: T2, RAGE (Mus musculus, UniProt Q62151); experiment: S100A8/A9-induced pro-inflammatory signalling in PMAEC; conditions: 1 hour pre-treatment, 1 μg/mL, S100A8/A9 5 ng/ml, FIG. 6C
# T2 construct: in murine SVEC that are endogenously replete in RAGE expression; host or cells: Svec4-10 mouse endothelial cells
# Description: (§1) Additional experiments were conducted in the presence and absence of a 1 hour pre-treatment with a neutralizing antibody to RAGE (RAGEab; R&D systems; 1 μg/mL) or soluble RAGE22-331 (sRAGE; 1 μg/mL) prior to exposure to 1 μM Ang II or 5 ng/ml of the RAGE ligand, S100A8/A9.
# (§2) Additional experiments were conducted in the presence and absence of a 1 hour pre-treatment with a pseudo-substrate for PKCζ (iPKCζ, 5 μM, Tocris).
# (§3) To confirm the applicability of inhibition strategies to human tissues, additional experiments were undertaken in primary aortic endothelial cells from humans (Lonza). HAECs were grown in EGM-2 media. In each case cells were treated with mCherry-TAT (control), TAT-mCherry-RAGE362-404 (wild type), or TAT-mCherry-S391A-RAGE362-404 at a dose of 0.4 ng/ml for 30 min prior to treatment with either Ang II (1 μM), or S100A8/A9 (2 μg/ml; R&D systems) for 2h.
# RAGE [3] = biological target: T2, RAGE; experiment: Ang II-induced pro-inflammatory signalling in PMAEC; conditions: 1 hour pre-treatment, 1 μg/mL, 1 μM Ang II, FIG. 6B
# Description: as §1, §2, §3
# RAGE [4] = biological target: T1, RAGE; experiment: Ang II-induced pro-inflammatory signalling (p65-NFκB expression) in AT1R-CHO / RAGE-AT1R-CHO cells; conditions: RAGE-AT1R-CHO cells; 1 hour pre-treatment, 1 μg/mL; 1 μM Ang II; FIG. 6A
# RAGE [5] = biological target: T1, RAGE; experiment: S100A8/A9-induced pro-inflammatory signalling in RAGE-AT1R-CHO cells; conditions: 1 hour pre-treatment, 1 μg/mL, S100A8/A9 5 ng/ml, FIG. 6A
# Description: as §1, §3
# T1 sequence (Q15109 23-404): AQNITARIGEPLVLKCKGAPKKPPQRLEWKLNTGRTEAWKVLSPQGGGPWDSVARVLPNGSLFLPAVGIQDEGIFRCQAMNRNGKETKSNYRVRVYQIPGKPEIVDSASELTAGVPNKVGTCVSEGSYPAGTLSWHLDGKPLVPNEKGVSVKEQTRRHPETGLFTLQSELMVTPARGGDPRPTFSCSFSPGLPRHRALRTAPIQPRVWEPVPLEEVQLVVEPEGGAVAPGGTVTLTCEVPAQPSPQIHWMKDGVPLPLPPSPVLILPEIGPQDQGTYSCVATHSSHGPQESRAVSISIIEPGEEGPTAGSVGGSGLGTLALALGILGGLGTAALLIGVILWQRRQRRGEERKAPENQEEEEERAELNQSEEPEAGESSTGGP
# T2 sequence (Q62151 23-402): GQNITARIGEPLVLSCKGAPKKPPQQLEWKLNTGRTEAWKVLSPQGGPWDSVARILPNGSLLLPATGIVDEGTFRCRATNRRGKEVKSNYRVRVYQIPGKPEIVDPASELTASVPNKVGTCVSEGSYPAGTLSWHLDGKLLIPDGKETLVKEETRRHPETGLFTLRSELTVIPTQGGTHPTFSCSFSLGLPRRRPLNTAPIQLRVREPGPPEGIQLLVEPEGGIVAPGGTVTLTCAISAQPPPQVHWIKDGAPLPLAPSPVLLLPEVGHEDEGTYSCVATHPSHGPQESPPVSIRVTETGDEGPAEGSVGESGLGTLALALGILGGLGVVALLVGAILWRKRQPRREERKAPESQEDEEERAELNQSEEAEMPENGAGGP
Ang II-induced induction of pro-inflammatory genes (RAGE [1]),pro-inflammatory signalling induced by the RAGE ligand S100A8/A9 (RAGE [2]),Ang II-AT1R-dependent induction of pro-inflammatory signalling (RAGE [3]),RAGE ligand-independent induction of pro-inflammatory signalling by Ang II (RAGE [4]),RAGE ligand-dependent induction of pro-inflammatory signalling by S100A8/A9 (RAGE [5]),Molecule
inhibitory effect,,,,,CCCCC1=NC2(CCCC2)C(=O)N1Cc1ccc(-c2ccccc2-c2nnn[nH]2)cc1 [irbesartan]
,able to attenuate,does not attenuate,do not affect,block,sRAGE22-331: soluble RAGE decoy with ligand-binding affinity; extracellular ligand-binding V-C1-C2 domains of RAGE
